Measurements taken from paper PMC3779078 (Molecular reproduction and development, 2009).

Columns and labels:
Test in all cases: PAGE under mildly denaturing conditions with Western blot
[1] = biological target: Izumo 1 N-terminal domain (N), recombinant (mouse)
[2] = biological target: Izumo domain of Izumo 3, recombinant (mouse)
[3] = biological target: the molecule itself

Izumo 1 N-terminal domain (N), recombinant (domain or fragment)
stoichiometry N [1]: 2

Izumo domain of Izumo 3, recombinant (domain or fragment)
stoichiometry N [2]: 2

B1: Izumo 1 entire extracellular domain (N-Ig), recombinant (domain or fragment, mouse, UniProt Q9D9J7 22-319, looked up)
chain: CIKCDQFVTDALKTFENTYLNDHLPHDIHKNVMRMVNHEVSSFGVVTSAEDSYLGAVDENTLEQATWSFLKDLKRITDSDLKGELFIKELLWMLRHQKDIFNNLARQFQKEVLCPNKCGVMSQTLIWCLKCEKQLHICRKSLDCGERHIEVHRSEDLVLDCLLSWHRASKGLTDYSFYRVWENSSETLIAKGKEPYLTKSMVGPEDAGNYRCVLDTINQGHATVIRYDVTVLPPKHSEENQPPNIITQEEHETPVHVTPQTPPGQEPESELYPELHPELYPELIPTVAQNPEKKMKTR
stoichiometry N [3]: 2
